The test system of the data set is MS2 coat protein. Description: apparent KD of MS2 coat protein; designed switch direction (-1 OFF switch, 1 ON switch): -1; higher = weaker reporter binding. In short, it runs like this: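 SNAP-549-labelled MS2 coat protein was titrated, doubling from 0.7 or 1.5 nM to 3 µM, over designed RNA switches transcribed on Illumina chips by stalled E. coli RNA polymerase. Runs were done without input, with 200 uM small-molecule ligand, or with an oligonucleotide input. Apparent KD is the per-design median over clusters of curve-fitted normalised fluorescence.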

[1] abbreviates: Eterna round: R95, input ligand: FMN 200 uM.
The mark [2] stands for this setting: Eterna round: R95, input ligand: microRNA oligo, concentration not stated.
Setting [3] is: Eterna round: R95, input ligand: none.
Setting [4] is: input ligand: microRNA oligo, concentration not stated.

Turning to “UACGAGUUAGGAUAUGCAAUGGGCUCGCUUUCCUUCGAUAAACUUGAGGAUCACCCAAGUAGAAGGAACUUGUA [Mod 36 - Jieux - Exclusion 2] (Eterna round: R97, puzzle: Exclusion 2)”, the “apparent KD of MS2 coat protein” value (input ligand: FMN 200 uM) was found to be 19.9 nM and the “apparent KD of MS2 coat protein” value (input ligand: none) turned out to be 16.2 nM.

With “UACUAAAAGGAGGAUAUCGUAUCGGAAACGAUACGAGAAGGCUUAACAUGAGGAUCACCCAUGUUCUUCAAUAA [Mat - Exclusion 6 - Eli Mod - D88] (puzzle: Exclusion 6)”, the “apparent KD of MS2 coat protein” value reads like this: under setting [1], 24.6 nM; under setting [2], 17.3 nM; under setting [3], 16.4 nM.

As for “UACUAAAAGGAGGAUAUCGUAUCGGAGACGAUACGAGAAGGCUUAACAUGAGGAUCACCCAUGUUCUUCAAUAU [Mat - Exclusion 6 - Eli Mod - D96] (puzzle: Exclusion 6)”, the “apparent KD of MS2 coat protein” value under setting [2] came out at 14.8 nM.

With “UAGAAGGUAGGAUAUACGAAUAAAUAGGGUAGGAAGAAGACACAUGAGGAUCACCCAUGUAGAAGGACCAAGAU [Mat - Exclusion 2 - Mod of my Tesla design - D34] (puzzle: Exclusion 2)”, the “apparent KD of MS2 coat protein” value is, setting by setting: under setting [1], 36.6 nM; under setting [2], 17.5 nM; under setting [3], 18.5 nM.

For “UAGAAUCGAGGAUAUACAUGAGGAUCACCCAUGUGUGGCCAUUUGGUGUGGUCGUCAGGUAGAAGGCGAUUACA [Exclusion 3 - Mod of Jieux's Gilly Gone Silly 23 v.5] (Eterna round: R96, puzzle: Exclusion 3)”, the “apparent KD of MS2 coat protein” value runs as follows: (input ligand: FMN 200 uM) 173 nM; under setting [4], 211 nM; (input ligand: none) 412 nM.

Consider “UAGAAUCGAGGAUAUACAUGAGGAUCACCCAUGUGUGGCCAUUUGGUGUGGUCGUCAGGUAGAAGGCGAUUACA [Exclusion 3 - Mod of Jieux's Gilly Gone Silly 23 v.5] (puzzle: Exclusion 3)”, for which, under setting [2], the “apparent KD of MS2 coat protein” value stood at 141 nM.

“UAGAAUCGAGGAUAUACAUGAGGAUCACCCAUGUGUUGCCGCGUGAUGUGUUUGUCAGGUAGAAGGCGAUUAUA [Exclusion 3 - Mod of Jieux's Gilly Gone Silly 23 v.8] (puzzle: Exclusion 3)”: the “apparent KD of MS2 coat protein” value under setting [2] stood at 63.8 nM.

On to “UAGAGACAUGAGGAUCACCCAUGUCAGGAUAUCUGCUUAGACAGGUUCACGGUCUAGUAGAGAAGGGACUGGAG [Eternabot (L2) Solution 42] (Eterna round: R97, puzzle: Exclusion 1)”, for which the “apparent KD of MS2 coat protein” value runs as follows: (input ligand: FMN 200 uM) 121 nM; (input ligand: none) 87.4 nM.

For the sequence “UAGAUGCUCAGGGAGUGUGACAUGAGGAUCACCCAUGUGGUGGUAGGGAACAAGCUUUUUGCACGUACUUAUGAGUA [JR_SV3TOV1_Sub007] (Eterna round: R96, puzzle: Sensor v3, turn-off variant 1)”, the “apparent KD of MS2 coat protein” value by setting is: (input ligand: FMN 200 uM) 435 nM; under setting [4], 148 nM; (input ligand: none) 497 nM.

Consider “UAGAUGCUCAGGGAGUGUGACAUGAGGAUCACCCAUGUGGUGGUAGGGAACAAGCUUUUUGCACGUACUUAUGAGUA [JR_SV3TOV1_Sub007] (puzzle: Sensor v3, turn-off variant 1)”, for which the “apparent KD of MS2 coat protein” value runs as follows: under setting [1], 64.9 nM; under setting [2], 18.3 nM; under setting [3], 117 nM.

“UAGAUGGGAGGAUAUGCAUAGAUACAGAUUCAUGUAGUGCUACAUGAGGAUCACCCAUGUAGAAGGCCCGUCUU [JL-ex2-2.20 Mayanne mod] (Eterna round: R96, puzzle: Exclusion 2)”: the “apparent KD of MS2 coat protein” value (input ligand: FMN 200 uM) came to 208 nM, the “apparent KD of MS2 coat protein” value under setting [4] is 22.1 nM and the “apparent KD of MS2 coat protein” value (input ligand: none) came out at 24.1 nM.

With “UAGAUGGGAGGAUAUGCAUAGAUACAGAUUCAUGUAGUGCUACAUGAGGAUCACCCAUGUAGAAGGCCCGUCUU [JL-ex2-2.20 Mayanne mod] (puzzle: Exclusion 2)”, under setting [2], the “apparent KD of MS2 coat protein” value turned out to be 19.9 nM.

As to “UAGAUGGGAGGAUAUGCAUAGAUACAGAUUCGUGUAGUGCUACAUGAGGAUCACCCAUGUAGAAGGCCCGUCUU [JL-ex2-2.22 Mayanne mod] (puzzle: Exclusion 2)”, the “apparent KD of MS2 coat protein” value under setting [2] amounted to 14.2 nM.

Turning to “UAGAUGGGAGGAUAUGCGUAGAUACGGAUUCGUGUAGUGCUACAUGAGGAUCACCCAUGUAGAAGGCCCGUCUU [JL-ex2-2.28 Mayanne mod] (puzzle: Exclusion 2)”, the “apparent KD of MS2 coat protein” value under setting [2] was 13.9 nM.

For “UAGCAUUGCCUUUGGUAGUGCCUUACAUGAGGAUCACCCAUGUAGGAUAUGGUAGGCUUUGCUUACCAGAAGGACAUGGUAAUU [JL ENG3 1.06] (Eterna round: R96, puzzle: Exclusion NG 3)”, the “apparent KD of MS2 coat protein” value under setting [4] was 54.1 nM.

For “UAGCAUUGCCUUUGGUAGUGCUAUACAUGAGGAUCACCCAUGUAGGAUAUGGUCGGCUUUGCUGACCAGAAGGACAUGUGUAUU [MOD2 ENG3 1.04 by JL] (Eterna round: R96, puzzle: Exclusion NG 3)”, the “apparent KD of MS2 coat protein” value by setting is: (input ligand: FMN 200 uM) 159 nM; under setting [4], 91.5 nM; (input ligand: none) 93.1 nM.

These data come from the supplement of paper PMC9170038.
